Reference: article PMC4754349, “Tripartite assembly of RND multidrug efflux pumps” (Nature Communications, 2016)

B1: lipidated MexA (natural protein)
chain: CGKSEAPPPAQTPEVGIVTLEAQTVTLNTELPGRTNAFRIAEVRPQVNGIILKRLFKEGSDVKAGQQLYQIDPATYEADYQSAQANLASTQEQAQRYKLLVADQAVSKQQYADANAAYLQSKAAVEQARINLRYTKVLSPISGRIGRSAVTEGALVTNGQANAMATVQQLDPIYVDVTQPSTALLRLRRELASGQLERAGDNAAKVSLKLEDGSQYPLEGRLEFSEVSVDEGTGSVTIRAVFPNPNNELLPGMFVHAQLQEGVKQKAILAPQQGVTRDLKGQATALVVNAQNKVELRVIKADRVIGDKWLVTEGLNAGDKIITEGLQFVQPGVEVKTVPAKNVASAQKADAAPAKTDSKG
modifications: lipidated (palmitoylation of an N-terminal cysteinyl residue)
notes: MexA, periplasmic membrane fusion protein of Pseudomonas aeruginosa, native lipidated form, 39 kDa monomer; also called native lipid-modified MFP; source: E. coli C43ΔacrB, purified (HisTrap HP, gel filtration Superose 6), in 0.03% DDM
B2: OprM reconstituted into nanodiscs (OprM–ND) (natural protein)
chain: CSLIPDYQRPEAPVAAAYPQGQAYGQNTGAAAVPAADIGWREFFRDPQLQQLIGVALENNRDLRVAALNVEAFRAQYRIQRADLFPRIGVDGSGTRQRLPGDLSTTGSPAISSQYGVTLGTTAWELDLFGRLRSLRDQALEQYLATEQAQRSAQTTLVASVATAYLTLKADQAQLQLTKDTLGTYQKSFDLTQRSYDVGVASALDLRQAQTAVEGARATLAQYTRLVAQDQNALVLLLGSGIPANLPQGLGLDQTLLTEVPAGLPSDLLQRRPDILEAEHQLMAANASIGAARAAFFPSISLTANAGTMSRQLSGLFDAGSGSWLFQPSINLPIFTAGSLRASLDYAKIQKDINVAQYEKAIQTAFQEVADGLAARGTFTEQLQAQRDLVKASDEYYQLADKRYRTGVDNYLTLLDAQRSLFTAQQQLITDRLNQLTSEVNLYKALGGGWNQQTVTQQQTAKKEDPQA
notes: OprM, outer membrane factor of Pseudomonas aeruginosa; called native; One trimer in each nanodisc (POPC, MSP1D1); also called OMF; source: E. coli C43ΔacrB, purified (HisTrap HP, gel filtration Superose 6), reconstituted into POPC/MSP1D1 nanodiscs
B3: MexB reconstituted into nanodiscs (MexB–ND) (natural protein)
chain: MSKFFIDRPIFAWVIALVIMLAGGLSILSLPVNQYPAIAPPAIAVQVSYPGASAETVQDTVVQVIEQQMNGIDNLRYISSESNSDGSMTITVTFEQGTDPDIAQVQVQNKLQLATPLLPQEVQRQGIRVTKAVKNFLMVVGVVSTDGSMTKEDLSNYIVSNIQDPLSRTKGVGDFQVFGSQYSMRIWLDPAKLNSYQLTPGDVSSAIQAQNVQISSGQLGGLPAVKGQQLNATIIGKTRLQTAEQFENILLKVNPDGSQVRLKDVADVGLGGQDYSINAQFNGSPASGIAIKLATGANALDTAKAIRQTIANLEPFMPQGMKVVYPYDTTPVVSASIHEVVKTLGEAILLVFLVMYLFLQNFRATLIPTIAVPVVLLGTFGVLAAFGFSINTLTMFGMVLAIGLLVDDAIVVVENVERVMAEEGLSPREAARKSMGQIQGALVGIAMVLSAVFLPMAFFGGSTGVIYRQFSITIVSAMALSVIVALILTPALCATMLKPIEKGDHGEHKGGFFGWFNRMFLSTTHGYERGVASILKHRAPYLLIYVVIVAGMIWMFTRIPTAFLPDEDQGVLFAQVQTPPGSSAERTQVVVDSMREYLLEKESSSVSSVFTVTGFNFAGRGQSSGMAFIMLKPWEERPGGENSVFELAKRAQMHFFSFKDAMVFAFAPPSVLELGNATGFDLFLQDQAGVGHEVLLQARNKFLMLAAQNPALQRVRPNGMSDEPQYKLEIDDEKASALGVSLADINSTVSIAWGSSYVNDFIDRGRVKRVYLQGRPDARMNPDDLSKWYVRNDKGEMVPFNAFATGKWEYGSPKLERYNGVPAMEILGEPAPGLSSGDAMAAVEEIVKQLPKGVGYSWTGLSYEERLSGSQAPALYALSLLVVFLCLAALYESWSIPFSVMLVVPLGVIGALLATSMRGLSNDVFFQVGLLTTIGLSAKNAILIVEFAKELHEQGKGIVEAAIEACRMRLRPIVMTSLAFILGVVPLAISTGAGSGSQHAIGTGVIGGMVTATVLAIFWVPLFYVAVSTLFKDEASKQQASVEKGQ
notes: MexB, inner membrane RND transporter of Pseudomonas aeruginosa; called native; One trimer in each nanodisc (POPC, MSP1E3D1); also called RND; source: E. coli C43ΔacrB, purified (HisTrap HP, gel filtration Superose 6), reconstituted into POPC/MSP1E3D1 nanodiscs

What was measured:
[1] = target: B2; experiment: native gel or EMSA; native PAGE, 4–15% gradient gel, Tris-Glycine running buffer, silver stained; nanodisc-reconstituted MexB and OprM mixed 1:1, with or without lipidated MexA (1:1:10 molar ratio); settings: both partners purified
[2] = target: B3; experiment: as above; settings: both partners purified
[3] = target: the molecule itself; experiment: negative-stain electron microscopy, single-particle analysis; nanodisc-reconstituted RND and OMF mixed with lipidated MFP (1:1:10, or SEC-purified complex), stained with 2% uranyl acetate on carbon-coated grids; reference-free two-dimensional class averages (SPIDER)

Binder	binding result [1]	binding result [2]	binding result [3]
B1	binds	binds	
B2			binds
B3			binds
